Source: FireProtDB (doi:10.1021/bi00015a036)

Settings: Bacillus amyloliquefaciens, Thermal, DSC, reversible: yes (~80%), whole UniProt chain shown

B1: Ribonuclease wild type, P00648 (protein)
chain: MMKMEGIALKKRLSWISVCLLVLVSAAGMLFSTAAKTETSSHKAHTEAQVINTFDGVADYLQTYHKLPDNYITKSEAQALGWVASKGNLADVAPGKSIGGDIFSNREGKLPGKSGRTWREADINYTSGFRNSDRILYSSDWLIYKTTDHYQTFTKIR
Tm (pH 7, PIPES 50 mM): 54 °C | unfolding enthalpy (calorimetric) (pH 7, PIPES 50 mM): 132 kcal/mol | Tm (pH 10, CAPS 50 mM): 48.6 °C | unfolding enthalpy (calorimetric) (pH 10, CAPS 50 mM): 122 kcal/mol | Tm (pH 10.3, CAPS 50 mM): 48.4 °C | unfolding enthalpy (calorimetric) (pH 10.3, CAPS 50 mM): 121 kcal/mol | Tm (pH 10.5, CAPS 50 mM): 47.4 °C | unfolding enthalpy (calorimetric) (pH 10.5, CAPS 50 mM): 120 kcal/mol
